# pKd: −log10 of the molar value.
# Target: subtilisin pS169 (A1C mutant of S189), labeled with Alexafluor 350 maleimide (Bacillus amyloliquefaciens)
substance,measurement,value
"P1 (residues 1−77 of pG12), the prodomain product left after cleavage (domain or fragment)",pKd,> 9.00
